Results published in patent publication US20240067758A1 (UCB, published 2024).
Where a chain is given by its changes, count along the chain named.

What was measured:
Human IL22 [1] = target: T1, Human IL22 (human, UniProt Q9GZX6 34-179); assay: SPR; sample stressed 2 weeks at 37 °C, pH 8.0 (Asn95 of light chain CDR3 >40% deamidated)
T1 construct: IL22 of the Biacore and cell assays
T1 sequence: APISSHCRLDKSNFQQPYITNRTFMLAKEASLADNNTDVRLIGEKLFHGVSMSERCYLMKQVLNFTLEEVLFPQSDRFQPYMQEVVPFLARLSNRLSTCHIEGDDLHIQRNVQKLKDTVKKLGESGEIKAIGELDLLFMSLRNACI

Human IL22 [2] = target: T1, Human IL22; assay: cell-based or functional assay
Mouse IL13 = target: T2, Mouse IL13 (mouse, UniProt P20109 26-131, limits assumed); assay: SPR Biacore T200; TrYbe captured on anti-human F(ab')2, mouse IL13 titrated
T2 sequence (looked up): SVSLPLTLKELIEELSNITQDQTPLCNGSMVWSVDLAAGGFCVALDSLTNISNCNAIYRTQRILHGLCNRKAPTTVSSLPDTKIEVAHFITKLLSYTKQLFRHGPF

Human IL22 [3] = target: T1, Human IL22; assay: SPR Biacore T200; TrYbe captured on anti-human F(ab')2, analyte 10-0.3125 nM; mean KD
Experimental: (§1) BIA (Biomolecular Interaction Analysis) was performed using T200 (GE Healthcare). Affinipure IgG-F(ab′)₂ Fragment goat anti-human IgG, F(ab′)₂ fragment specific (Jackson ImmunoResearch) was immobilized on a CM5 Sensor Chip via amine coupling chemistry to a capture level of ˜5000 response units (RUs). HBS-EP+buffer (10 mM HEPES pH 7.4, 0.15 M NaCl, 3 mM EDTA, 0.05% Surfactant P20, GE Healthcare) was used as the running buffer with a flow rate of 10 μL/min.
(§2) The surface was generated by 2×10 μL injections of 50 mM HCl, interspersed by a 10 μL injection of 5 mM NaOH at flowrate of 10 μL/min. Background subtraction binding curves were analyzed using the T200 evaluation software (version 3.0) following standard procedures. Kinetic parameters were determined from the fitting algorithm.

Cynomolgus IL13 = target: T3, Cynomolgus IL13 (cynomolgus, UniProt Q0PW92 21-132); assay: as above
T3 construct: also called Cyno IL-13
Experimental: as §1, §2

Human IL13 [4] = target: T4, Human IL13 (human, UniProt P35225 35-146, limits assumed); assay: as above
Experimental: as §1, §2

Cynomolgus IL22 = target: T5, Cynomolgus IL22 (cynomolgus, UniProt G7PHZ7 34-179); assay: as above
T5 construct: also called Cyno IL22; Cyno IL-22
T5 sequence: T1 sequence with I3V, L32S, H48R, F72L, R95S, R110K
Experimental: as §1, §2

Mouse IL22 = target: T6, Mouse IL22 (mouse, UniProt Q9JJY9 34-179); assay: as above
T6 sequence (looked up): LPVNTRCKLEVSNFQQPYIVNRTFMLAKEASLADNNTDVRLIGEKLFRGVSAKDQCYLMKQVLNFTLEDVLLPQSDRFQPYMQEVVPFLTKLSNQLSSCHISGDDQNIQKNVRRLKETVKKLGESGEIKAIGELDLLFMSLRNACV
Experimental: as §1, §2

Human IL22 [5] = target: T1, Human IL22; assay: SPR; non-stressed T0 sample of the deamidation stress study
Human IL13 [6] = target: T4, Human IL13; assay: cell-based or functional assay
Mouse Albumin = Mouse Albumin (mouse, UniProt P07724 25-608); assay: SPR Biacore T200; TrYbe captured on anti-human F(ab')2, analyte 100-3 nM; mean KD
Experimental: as §1, §2

Cynomolgus Albumin = target: T7, Cynomolgus Albumin (cynomolgus, UniProt A2V9Z4 25-608); assay: as above
T7 construct: also called Cyno Albumin
Experimental: as §1, §2

Human Albumin = target: T8, Human Albumin (human, UniProt P02768 25-609); assay: as above
T8 construct: also called human serum albumin; HSA
Experimental: as §1, §2

Kd (Human IL22 [1]): 0.03 nM
koff (Human IL22 [1]): 3.2e-05 s⁻¹
kon (Human IL22 [1]): 1.1e+06 M⁻¹ s⁻¹
IC50 (M) Geomean; IL22-induced IL-10 release, COLO205 cells; batch PB7916 (N = 4) (Human IL22 [2]): 3.4e-11 M
IC50 (M) Geomean; IL22-induced IL-10 release, COLO205 cells; batch PB8056 (N = 4) (Human IL22 [2]): 3.66e-11 M
binding result (Mouse IL13): no binding (tested: 10 nM to 0.3125 nM)
Kd (Human IL22 [3]): < 0.1 nM
Kd (Cynomolgus IL13): < 0.25 nM
Kd (Human IL13 [4]): < 0.1 nM
Kd (Cynomolgus IL22): < 0.1 nM
Kd (Mouse IL22): 14 to 25 nM
Kd (Human IL22 [5]): 0.026 nM
koff (Human IL22 [5]): 3.1e-05 s⁻¹
kon (Human IL22 [5]): 1.2e+06 M⁻¹ s⁻¹
IC50 (read off the curve), inhibition of eotaxin-3 secretion, primary human keratinocytes stimulated with IL-13 and IL-22 at 100 ng/ml (Human IL13 [6]): ~6 nM
Kd (Mouse Albumin): 5 to 6 nM
Kd (Cynomolgus Albumin): 1 to 3 nM
Kd (Human Albumin): 1 to 3 nM
B1: IL13/IL22 TrYbe (other)
heavy: EVQLVESGGGLVQPGGSLRLSCAVSGFSLSSYAMIWVRQAPGKGLEWIGIIDIEGSTYYASWAKGRFTISRDNSKNTVYLQMNSLRAEDTAVYYCARDRFVGVDIFDPWGQGTLVTVSSASTKGPSVFPLAPSSKSTSGGTAALGCLVKDYFPEPVTVSWNSGALTSGVHTFPAVLQSSGLYSLSSVVTVPSSSLGTQTYICNVNHKPSNTKVDKKVEPKSCSGGGGSGGGGSEVQLLESGGGLVQPGGSLRLSCAVSGIDLSNYAINWVRQAPGKCLEWIGIIWASGTTFYATWAKGRFTISRDNSKNTVYLQMNSLRAEDTAVYYCARTVPGYSTAPYFDLWGQGTLVTVSSGGGGSGGGGSGGGGSGGGGSDIQMTQSPSSVSASVGDRVTITCQSSPSVWSNFLSWYQQKPGKAPKLLIYEASKLTSGVPSRFSGSGSGTDFTLTISSLQPEDFATYYCGGGYSSISDTTFGCGTKVEIKRT
light: AVQLTQSPSSLSASVGDRVTITCQASEDIYTNLAWYQQKPGKAPKLLIYWASTLASGVPSRFSGSGSGTDFTLTISSLQPEDFATYYCQASVYGNAADSRYTFGGGTKVEIKRTVAAPSVFIFPPSDEQLKSGTASVVCLLNNFYPREAKVQWKVDNALQSGNSQESVTEQDSKDSTYSLSSTLTLSKADYEKHKVYACEVTHQGLSSPVTKSFNRGECSGGGGSGGGGSEVQLVQSGAEVKKPGSSVKVSCKASGYSFTSYYIHWVRQAPGQCLEWMGRIGPGSGDINYNEKFKGRATFTVDKSTSTAYMELSSLRSEDTAVYYCARFHYDGADWGQGTLVTVSSGGGGSGGGGSGGGGSGGGGSDIQMTQSPSSLSASVGDRVTITCKASQNINENLDWYQQKPGKAPKLLIYYTDILQTGIPSRFSGSGSGTDYTLTISSLQPEDFATYYCYQYYSGYTFGCGTKLEIKRT
notes: also called batches PB8056 and PB7916
